Values of other authors in publication PMC3020241.

Molecular target: arrestin-1 (dimer) (Mus musculus) (UniProt P20443)

Substance: arrestin-1 (from UniProt P20443)
- Kd: 57.5 µM
